Laboratory results taken from patent US20250368734A1 (ANTENGENE BIOLOGICS, published 2025).
Changes are numbered by the printed parent chain.

T1: mouse GPRC5D (mouse, UniProt Q9JIL6 1-344)
T1 construct: whole, on cells; HEK293T-mGPRC5D cells; also called mGPRC5D; murine GPRC5D
T1 sequence (looked up): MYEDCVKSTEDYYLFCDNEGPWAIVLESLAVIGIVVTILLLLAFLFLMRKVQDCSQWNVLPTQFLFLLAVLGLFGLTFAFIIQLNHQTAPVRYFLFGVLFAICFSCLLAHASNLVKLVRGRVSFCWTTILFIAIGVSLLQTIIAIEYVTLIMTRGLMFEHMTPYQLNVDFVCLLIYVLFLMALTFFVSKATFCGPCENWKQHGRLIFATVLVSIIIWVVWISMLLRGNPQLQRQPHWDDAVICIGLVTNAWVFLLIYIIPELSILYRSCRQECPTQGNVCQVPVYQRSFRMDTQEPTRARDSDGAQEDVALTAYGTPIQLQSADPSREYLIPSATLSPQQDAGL

B1: 89F11E3 (antibody, V domains shown)
VH: QVQLQQSGAELARPGASVKMSCKASGYTFTSSTIHWVKQRPGQGLAWIGYIVPSTGYTNYNQKFKDKATLTADKSSSTAYMQLTSLTSEDSAVYYCARSDGYPFGYSMAYWGQGTSVTVSS
VL: DIQMNQSPSSLSASLGDTITITCHASQNINVWLSWYHQKPGNIPKLLIYKASNLHTGVPSRFSGSGSGTGFTLTISRLQPEDIATYYCQQGQSYPFTFGSGTKLEIK
notes: Mouse monoclonal antibody from hybridoma subclone
B2: ch89F11E3 (antibody, V domains shown)
VH: B1 VH
VL: B1 VL
B3: ch101B3G3 (antibody, V domains shown)
VH: EVQLQQSGPELVKPGASMKISCKASGYSFTGYTMNWVKQSHGKNLEWIGLINPYNGGTRYNQKFKDKATLTVDKSSSTAYMELLSLTSEDSAVYYCARWLLRYAMDYWGQGTSVTVSS
VL: DIVMTQSQKFMSTSVGDRVSITCKASQNVGNAVAWYQQKPGHSPKLLISSASNRKNGVPDRFTGSGSGTDFTLTVSNMQSEDLADYFCQQYSDSSWTFGGGTKLEIK
B4: 96C9E7 (antibody, V domains shown)
VH: EVQLQQSGPELVKPGASVKMSCKASGYTFTYYILHWVKQKPGQGLEWIGYFNPYNDGNKFNERFRGKATLTSDKSSSTAYMELNSLTSEDSAVYFCARGGVRRYFDVWGAGTTVTVSS
VL: DIQMTQSPSSLSASLGERVSLTCRASQDIGSNLNWLQQEPDGTIKRLISATFSLDSGVPKRFSGSRSGSDYSLTISSLESEDFVNYYCLQYASFPYTFGGGTKLEIK
notes: as for B1
B5: ch108C4C12 (antibody, V domains shown)
VH: B4 VH with Y31S, I33V, L34I, P41T, N58T, F60Y, R63E, R65K, S77N, E89D
VL: B4 VL with S49Y, S53G, N85D, L89Q
B6: ch110B4H5 (antibody, V domains shown)
VH: EVQLQQSGPELVKPGASVKMSCKASGYTFTFYIMHWVKQKPGQGPEWIGYINPYNDGTKYNAKFKGKATLSSDRSSSTAYMELSSLTSEDSAVYYCARGGVRRYFDVWGAGTPVTVSS
VL: B4 VL with A25S, S49Y, D70H, N85V, A92G
B7: 110B4H5 (antibody, V domains shown)
VH: B6 VH
VL: B4 VL with A25S, S49Y, D70H, N85V, A92G
notes: as for B1
B8: 108C4C12 (antibody, V domains shown)
VH: B4 VH with Y31S, I33V, L34I, P41T, N58T, F60Y, R63E, R65K, S77N, E89D
VL: B4 VL with S49Y, S53G, N85D, L89Q
notes: as for B1
B9: 90G6H3 (antibody, V domains shown)
VH: QAYLQQSGAELVRSGASVKMSCKASGYTFTSYIMHWVKQTPGQGLEWIGYIYPGNGGTNYNQKFKDKATLSADTSSSTAYMQINSLTSEDSAVYFCARWGLRQGFAYWGQGTLVSVSA
VL: DIVMTQSQKFMSTSVGDRVSVTCKASQNVGGNVAWYQQKPGQSPKALIYSTSYRNSGVPDRFTGSGSGTDFTLTISNVQSEDLAEYFCQQYNSYPFTFGSGTKLEIR
notes: as for B1
B10: ch90G6H3 (antibody, V domains shown)
VH: B9 VH
VL: B9 VL
B11: 87A3G8 (antibody, V domains shown)
VH: QVQLKESGPGLVAPSQSLSITCTVSGFSLSSYSVYWVRQPPGKGLEWLGVIWAGGSTNYNSALMSRLSINKDKSKSQVFLKMNSLQTDDSAIYYCAMRWLPRGLDFWGQGTSVTVSS
VL: DIVMTQSHKFMSTSVGDRVSITCKASQDVGTAVAWYQQKPGQSPKLLIYWASTRHTGVPDRFTGSGSGTDFTLTISNVQSEDLADYFCQQYSTYYTFGGGTKLEIK
notes: as for B1
B12: ch87A3G8 (antibody, V domains shown)
VH: B11 VH
VL: B11 VL
B13: 82A1C10 (antibody, V domains shown)
VH: QVQLKESGPGLVAPSQSLSITCTVSGFSLTNYAVTWVRQPPGKGLEWLGVIWGDGSTYYHSALVSRLSITKDNSRTQVLLKLNSLQTDDTARYYCAKGGYSPFAYWGQGTLVTVSA
VL: DVVMTQTPLSLPVSLGDQASISCRSSQSLVHSNGNTYLHWYLQKPGQSPKLLIFKVSNRFSGVPDRFSGSGSGTDFTLKISRVEAEDLGVYFCSQNTHVPFTFGSGTKLEIK
notes: as for B1

Columns and labels:
cynomolgus monkey GPRC5D [1] = target: T2, cynomolgus monkey GPRC5D (cynomolgus monkey); assay: FACS, HEK293T-cynoGPRC5D cells
T2 construct: whole, on cells; HEK293T-cynoGPRC5D cells; also called cynoGPRC5D
From the text: (§1) The subcloning plates were screened by Mirrorball assay and the subclones with good binding ability were expanded to 24-wells for confirmation tests. The specificity and cross-reactivity of these subclones were confirmed with FACS analysis. Briefly, parental HEK293T, HEK293T cells stably over-expressing human GPRC5D protein (i.e., HEK293T-hGPRC5D), HEK293T cells stably over-expressing cynomolgus monkey GPRC5D protein (i.e., HEK293T-cynoGPRC5D), HEK293T cells stably over-expressing mouse GPRC5D protein (i.e., HEK293T-mGPRC5D), and OPM2 cells were incubated with antibodies produced by each subclone, respectively. Fluorescent dye-conjugated secondary antibody was used to detect the binding of the primary antibody with the cells. Median fluorescence intensity (MFI) was measured by FACS analysis,
(§2) As a result, 21 antibodies were discovered with unique sequences showing positive binding with HEK293T-hGPRC5D and OPM2 cells. Among which, some clones could also bind with HEK293T-cynoGPRC5D and/or HEK293T-mGPRC5D. […] ATG596 was a positive human IgG1 control antibody which comprises a VH region having an amino acid sequence as set forth in SEQ ID NO: 199, and a VL region having an amino acid sequence as set forth in SEQ ID NO: 200.

human GPRC5D [2] = target: T3, human GPRC5D (human, UniProt Q9NZD1 1-345); assay: FACS, HEK293T-hGPRC5D cells
T3 construct: whole, on cells; also called hGPRC5D; G-protein coupled receptor family C group 5 member D
From the text: as §1, §2

mouse GPRC5D [3] = target: T1, mouse GPRC5D; assay: FACS, HEK293T-mGPRC5D cells
From the text: as §1, §2

human GPRC5D [4] = target: T3, human GPRC5D; assay: FACS, OPM-2 cells
From the text: as §1, §2

human GPRC5D [5] = target: T3, human GPRC5D; assay: FACS, CHOS-hGPRC5D cells
cynomolgus monkey GPRC5D [6] = target: T2, cynomolgus monkey GPRC5D; assay: FACS, HEK293T-cynoGPRC5D cells; remark: listed apart in the source
mouse GPRC5D [7] = target: T1, mouse GPRC5D; assay: FACS, HEK293T-mGPRC5D cells; remark: listed apart in the source

T3 sequence (Q9NZD1 whole entry): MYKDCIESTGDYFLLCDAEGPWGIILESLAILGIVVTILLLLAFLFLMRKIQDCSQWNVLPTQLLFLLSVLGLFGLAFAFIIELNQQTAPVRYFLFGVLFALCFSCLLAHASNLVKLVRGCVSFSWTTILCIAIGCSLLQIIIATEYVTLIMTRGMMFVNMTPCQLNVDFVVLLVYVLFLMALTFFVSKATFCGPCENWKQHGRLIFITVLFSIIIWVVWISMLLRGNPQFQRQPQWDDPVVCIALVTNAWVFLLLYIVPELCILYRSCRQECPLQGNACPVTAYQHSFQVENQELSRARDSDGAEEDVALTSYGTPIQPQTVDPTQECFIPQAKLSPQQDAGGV

| Binder | % Positive (cynomolgus monkey GPRC5D [1]) [%] | MFI (cynomolgus monkey GPRC5D [1]) | % Positive (human GPRC5D [2]) [%] | MFI (human GPRC5D [2]) | % Positive (mouse GPRC5D [3]) [%] | MFI (mouse GPRC5D [3]) | % Positive (human GPRC5D [4]) [%] | MFI (human GPRC5D [4]) | EC50 (human GPRC5D [5]) [nM] | Top (human GPRC5D [5]) | EC50 (cynomolgus monkey GPRC5D [6]) [nM] | Top (cynomolgus monkey GPRC5D [6]) | EC50 (mouse GPRC5D [7]) [nM] | Top (mouse GPRC5D [7]) |
| --- | --- | --- | --- | --- | --- | --- | --- | --- | --- | --- | --- | --- | --- | --- |
| B1 | 98.8 | 16500 | 96.7 | 19200 | 74.6 | 1100 | 98.1 | 999 |  |  |  |  |  |  |
| B2 |  |  |  |  |  |  |  |  | 2.41 | 2600 | 278 | 40500 | 14.2 | 77300 |
| B3 |  |  |  |  |  |  |  |  | 4.85 | 3940 | 9.2 | 68900 | 38.6 | 57600 |
| B4 | 71.7 | 4020 | 58.8 | 680 | 49.2 | 202 | 99.9 | 1930 |  |  |  |  |  |  |
| B5 |  |  |  |  |  |  |  |  | 0.463 | 2040 | 3.87 | 39700 | 109 | 25500 |
| B6 |  |  |  |  |  |  |  |  | 2.74 | 1820 | 4.87 | 27600 | 14.2 | 42900 |
| B7 | 96.7 | 2470 | 98.7 | 5250 | 78.9 | 772 | 98.2 | 894 |  |  |  |  |  |  |
| B8 | 59.1 | 355 | 96.6 | 5010 | 65.7 | 274 | 98.3 | 878 |  |  |  |  |  |  |
| B9 | 99.4 | 11400 | 96.7 | 4940 | 87.4 | 2230 | 97.3 | 712 |  |  |  |  |  |  |
| B10 |  |  |  |  |  |  |  |  | 8.51 | 2250 | 13.6 | 61600 | 12.3 | 55300 |
| B11 | 76.7 | 3960 | 88.6 | 7380 | 46.2 | 178 | 92.7 | 451 |  |  |  |  |  |  |
| B12 |  |  |  |  |  |  |  |  | 2.81 | 1950 | 9.74 | 42200 | 15 | 76200 |
| B13 | 94.2 | 1070 | 99.4 | 8090 | 4.5 | 119 | 94.8 | 550 |  |  |  |  |  |  |
